From patent publication US20180188257A1 (UNIVERSITY OF ROCHESTER, published 2018)

Tests used:
[1] = target: T1, p53 (UniProt P04637 1-393, limits assumed); assay: co-immunoprecipitation from cell lysate with septin-2 pull-down antibody, western blot
T1 construct: Endogenous protein in cell lysates
Description: (§1) For immunoprecipitation studies, two million SKOV3 WT and OVCAR-8 cells were seeded onto 100 mm dishes (Corning) and cultured to 80% confluency in complete DMEM media. Cells were rinsed in DPBS (Gibco), lysed, and quantified using Bradford assay. Lysates were adjusted to 1 μg/μl total protein concentration, with 500 μl lysate used for each IP reaction. Identical samples were prepared for pull-down antibody (Septin-2 or HE4) and isotype-matched IgG control (#3900, Cell Signaling), with antibody concentration identical at 40 ng/μl. Further processing and PAGE analysis of samples was conducted to resolve the bands. The resulting membranes were probed for HE4 or Septin-2, p21 or P53, B-tubulin and other proteins of interest.

[2] = target: T2, β-tubulin (UniProt P07437 1-444); assay: as above
T2 construct: Endogenous protein in cell lysates; also called B-tubulin
T2 sequence (P07437 whole entry): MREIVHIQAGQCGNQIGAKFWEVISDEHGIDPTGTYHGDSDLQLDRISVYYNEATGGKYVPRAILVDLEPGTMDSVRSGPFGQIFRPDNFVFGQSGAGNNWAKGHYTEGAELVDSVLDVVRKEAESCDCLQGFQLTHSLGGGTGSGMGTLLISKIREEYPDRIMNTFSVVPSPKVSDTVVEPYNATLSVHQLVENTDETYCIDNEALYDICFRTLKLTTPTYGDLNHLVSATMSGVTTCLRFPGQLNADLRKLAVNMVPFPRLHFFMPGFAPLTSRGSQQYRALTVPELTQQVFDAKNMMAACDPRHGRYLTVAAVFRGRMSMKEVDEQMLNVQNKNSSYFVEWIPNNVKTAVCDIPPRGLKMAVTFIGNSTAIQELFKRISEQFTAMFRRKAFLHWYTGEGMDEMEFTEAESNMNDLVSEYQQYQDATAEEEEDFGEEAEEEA
Description: as §1

T1 sequence (P04637 whole entry): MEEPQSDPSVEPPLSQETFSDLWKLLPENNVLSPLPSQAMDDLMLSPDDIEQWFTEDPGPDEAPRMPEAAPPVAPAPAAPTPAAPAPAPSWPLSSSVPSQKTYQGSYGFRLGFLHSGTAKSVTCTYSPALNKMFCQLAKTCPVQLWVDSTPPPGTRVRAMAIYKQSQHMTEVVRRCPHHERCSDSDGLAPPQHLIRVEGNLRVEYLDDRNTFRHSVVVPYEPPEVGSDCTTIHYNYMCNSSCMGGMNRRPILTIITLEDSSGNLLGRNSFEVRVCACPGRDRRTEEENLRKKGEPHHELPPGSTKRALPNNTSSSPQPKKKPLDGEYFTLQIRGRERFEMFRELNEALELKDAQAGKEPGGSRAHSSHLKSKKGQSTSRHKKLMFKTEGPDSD

binding result [1]: no binding | binding result [2]: no binding
B1: septin-2 (other)
chain: MSKQQPTQFINPETPGYVGFANLPNQVHRKSVKKGFEFTLMVVGESGLGKSTLINSLFLTDLYPERVIPGAAEKIERTVQIEASTVEIEERGVKLRLTVVDTPGYGDAINCRDCFKTIISYIDEQFERYLHDESGLNRRHIIDNRVHCCFYFISPFGHGLKPLDVAFMKAIHNKVNIVPVIAKADTLTLKERERLKKRILDEIEEHNIKIYHLPDAESDEDEDFKEQTRLLKASIPFSVVGSNQLIEAKGKKVRGRLYPWGVVEVENPEHNDFLKLRTMLITHMQDLQEVTQDLHYENFRSERLKRGGRKVENEDMNKDQILLEKEAELRRMQEMIARMQAQMQMQMQGGDGDGGALGHHV
notes: Endogenous protein in lysates of the ovarian cancer cell lines SKOV3 WT and OVCAR-8, pulled down with a septin-2 antibody
